Reference: IntAct's records for PubMed 12732728

B1: RNA polymerase II subunit A C-terminal domain phosphatase (Homo sapiens), Q9Y5B0 (parent)
chain: MEVPAAGRVPAEGAPTAAVAEVRCPGPAPLRLLEWRVAAGAAVRIGSVLAVFEAAASAQSSGASQSRVASGGCVRPARPERRLRSERAGVVRELCAQPGQVVAPGAVLVRLEGCSHPVVMKGLCAECGQDLTQLQSKNGKQQVPLSTATVSMVHSVPELMVSSEQAEQLGREDQQRLHRNRKLVLMVDLDQTLIHTTEQHCQQMSNKGIFHFQLGRGEPMLHTRLRPHCKDFLEKIAKLYELHVFTFGSRLYAHTIAGFLDPEKKLFSHRILSRDECIDPFSKTGNLRNLFPCGDSMVCIIDDREDVWKFAPNLITVKKYVYFQGTGDMNAPPGSRESQTRKKVNHSRGTEVSEPSPPVRDPEGVTQAPGVEPSNGLEKPARELNGSEAATPRDSPRPGKPDERDIWPPAQAPTSSQELAGAPEPQGSCAQGGRVAPGQRPAQGATGTDLDFDLSSDSESSSESEGTKSSSSASDGESEGKRGRQKPKAAPEGAGALAQGSSLEPGRPAAPSLPGEAEPGAHAPDKEPELGGQEEGERDGLCGLGNGCADRKEAETESQNSELSGVTAGESLDQSMEEEEEEDTDEDDHLIYLEEILVRVHTDYYAKYDRYLNKEIEEAPDIRKIVPELKSKVLADVAIIFSGLHPTNFPIEKTREHYHATALGAKILTRLVLSPDAPDRATHLIAARAGTEKVLQAQECGHLHVVNPDWLWSCLERWDKVEEQLFPLRDDHTKAQRENSPAAFPDREGVPPTALFHPMPVLPKAQPGPEVRIYDSNTGKLIRTGARGPPAPSSSLPIRQEPSSFRAVPPPQPQMFGEELPDAQDGEQPGPSRRKRQPSMSETMPLYTLCKEDLESMDKEVDDILGEGSDDSDSEKRRPEEQEEEPQPRKPGTRRERTLGAPASSERSAAGGRGPRGHKRKLNEEDAASESSRESSNEDEGSSSEADEMAKALEAELNDLM

Variants of: B1
Conditions: with t2fa_human GTF2F1, P35269
Sequence of t2fa_human GTF2F1, P35269 (P35269 whole entry): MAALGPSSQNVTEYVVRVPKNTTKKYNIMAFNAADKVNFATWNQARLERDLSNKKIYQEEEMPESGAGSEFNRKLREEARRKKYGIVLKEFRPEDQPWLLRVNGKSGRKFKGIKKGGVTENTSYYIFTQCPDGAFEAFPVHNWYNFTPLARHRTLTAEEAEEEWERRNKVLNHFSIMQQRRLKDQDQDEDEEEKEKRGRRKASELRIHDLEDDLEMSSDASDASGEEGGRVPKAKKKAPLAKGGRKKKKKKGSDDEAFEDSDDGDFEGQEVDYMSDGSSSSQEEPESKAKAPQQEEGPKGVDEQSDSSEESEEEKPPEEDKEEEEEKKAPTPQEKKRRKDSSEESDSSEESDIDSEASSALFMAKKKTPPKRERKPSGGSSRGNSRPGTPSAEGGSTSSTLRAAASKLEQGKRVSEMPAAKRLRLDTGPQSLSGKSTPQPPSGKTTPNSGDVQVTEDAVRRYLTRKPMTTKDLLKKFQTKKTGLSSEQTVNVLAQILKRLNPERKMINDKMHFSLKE
In the case of E956A;L957A, the “effect of a mutation on the interaction” value is reported as “decreasing interaction”.
